Test results taken from article doi:10.1101/398008.

Target: IMP3 KH1-2 WT (human, UniProt O00425 192-355)
Assay: ITC

Chain of IMP3 KH1-2 WT (O00425 192-355): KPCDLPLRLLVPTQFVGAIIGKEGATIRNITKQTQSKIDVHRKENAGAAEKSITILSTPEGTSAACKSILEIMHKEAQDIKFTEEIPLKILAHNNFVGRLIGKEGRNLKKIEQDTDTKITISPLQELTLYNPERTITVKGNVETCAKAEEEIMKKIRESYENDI

B1: 34-mer (ssRNA)
RNA: AACACAAUUUUGGAGGAACUACAGAAUGCGGCUA
- binding signal: ~10 fold higher affinity than 7-mer RNAs
